In article PMC3381609 one finds Km and kcat data, which are given here for two proteins.

Substrate in the series: O=C1OC2(c3ccc(O[C@@H]4O[C@H](CO)[C@H](O)[C@H](O)[C@H]4O)cc3Oc3cc(O[C@@H]4O[C@H](CO)[C@H](O)[C@H](O)[C@H]4O)ccc32)c2ccccc21
Put plainly: purified protein. As to conditions: no indole, pH 6.5, 37 °C, 50 mM sodium phosphate, 5% DMSO. It is filed as biochemical, Saccharolobus solfataricus.

B1: β-glycosidase (β-gly) (Saccharolobus solfataricus P2; W33G) (protein)
chain: MYSFPNSFRFGWSQAGFQSEMGTPGSEDPNTDGYKWVHDPENMAAGLVSGDLPENGPGYWGNYKTFHDNAQKMGLKIARLNVEWSRIFPNPLPRPQNFDESKQDVTEVEINENELKRLDEYANKDALNHYREIFKDLKSRGLYFILNMYHWPLPLWLHDPIRVRRGDFTGPSGWLSTRTVYEFARFSAYIAWKFDDLVDEYSTMNEPNVVGGLGYVGVKSGFPPGYLSFELSRRAMYNIIQAHARAYDGIKSVSKKPVGIIYANSSFQPLTDKDMEAVEMAENDNRWWFFDAIIRGEITRGNEKIVRDDLKGRLDWIGVNYYTRTVVKRTEKGYVSLGGYGHGCERNSVSLAGLPTSDFGWEFFPEGLYDVLTKYWNRYHLYMYVTENGIADDADYQRPYYLVSHVYQVHRAINSGADVRGYLHWSLADNYEWASGFSMRFGLLKVDYNTKRLYWRPSALVYREIATNGAITDEIEHLNSVPPVKPLRH
Usually Km stands for the concentration of substrate that gives half-maximal velocity. The term kcat denotes the maximal rate divided by the concentration of active sites. For the protein B1, the Km was found to be 1080 ± 30 µM and the turnover number (kcat) is 0.00675 ± 0.00004 s⁻¹.

B2: β-glycosidase (β-gly) (Saccharolobus solfataricus P2) (protein)
chain: MYSFPNSFRFGWSQAGFQSEMGTPGSEDPNTDWYKWVHDPENMAAGLVSGDLPENGPGYWGNYKTFHDNAQKMGLKIARLNVEWSRIFPNPLPRPQNFDESKQDVTEVEINENELKRLDEYANKDALNHYREIFKDLKSRGLYFILNMYHWPLPLWLHDPIRVRRGDFTGPSGWLSTRTVYEFARFSAYIAWKFDDLVDEYSTMNEPNVVGGLGYVGVKSGFPPGYLSFELSRRAMYNIIQAHARAYDGIKSVSKKPVGIIYANSSFQPLTDKDMEAVEMAENDNRWWFFDAIIRGEITRGNEKIVRDDLKGRLDWIGVNYYTRTVVKRTEKGYVSLGGYGHGCERNSVSLAGLPTSDFGWEFFPEGLYDVLTKYWNRYHLYMYVTENGIADDADYQRPYYLVSHVYQVHRAINSGADVRGYLHWSLADNYEWASGFSMRFGLLKVDYNTKRLYWRPSALVYREIATNGAITDEIEHLNSVPPVKPLRH
Regarding B2, the Km was found to be 58 ± 4 µM and the kcat was 0.265 ± 0.002 s⁻¹.
